Test: label from the status in PepcDB records
In the case of “MSLSMRDPVIPGTSMAYHPFLPHRAPDFAMSAVLGHQPPFFPALTLPPNGAAALSLPGALAKPIMDQLVGAAETGIPFSSLGPQAHLRPLKTMEPEEEVEDDPKVHLEAKELWDQFHKRGTEMVITKSGRRMFPPFKVRCSGLDKKAKYILLMDIIAADDCRYKFHNSRWMVAGKADPEMPKRMYIHPDSPATGEQWMSKVVTFHKLKLTNNISDKHGFTLAFPSDHATWQGNYSFGTQTILNSMHKYQPRFHIVRANDILKLPYSTFRTYLFPETEFIAVTAYQNDKITQLKIDNNPFAKGFRDTGNGRREKRKQLTLQSMRVFDERHKKENGTSDESSSEQAAFNCFAQASSPAASTVGTSNLKDLCPSEGESDAEAESKEEHGPEACDAAKISTTTSEEPCRDKGSPAVKAHLFAAERPRDSGRLDKASPDSRHSPATISSSTRGLGAEERRSPVREGTAPAKVEEARALPGKEAFAPLTVQTDAAAAHLAQGPLPGLGFAPGLAGQQFFNGHPLFLHPSQFAMGGAFSSMAAAGMGPLLATVSGASTGVSGLDSTAMASAAAAQGLSGASAATLPFHLQQHVLASQGLAMSPFGSLFPYPYTYMAAAAAASSAAASSSVHRHPFLNLNTMRPRLRYSPYSIPVPVPDGSSLLTTALPSMAAAAGPLDGKVAALAASPASVAVDSGSELNSRSSTLSSSSMSLSPKLCAEKEAATSELQSIQRLVSGLEAKPDRSRSASP”, the protein production is reported as “failed”. With “MSLSNHSSDIEVGHSMNLTNHFLVAMPSMKDPYFKRSVIYICEHNQDGAMGLMINAPIDITVGGMLKQVDIEPAYPQSHQENLKKPVFNGGPVSEDRGFILHRPRDHYESSMKMTDDIAVTTSKDILTVLGTEAEPEGYIVALGYSGWSAGQLEVELTENSWLTIEADPELIFNTPVHEKWQKAIQKLGISPAQLSSDAGHEGGSHHHHHH” the protein production was “not failed”. In the case of “MSLSNKIFTHSLPMRYADFPTLVDALDYAALSSAGMNFYDRRCQLEDQLEYQTLKARAEAGAKRLLSLNLKKGDRVALIAETSSEFVEAFFACQYAGLVAVPLAIPMGVGQRDSWSAKLQGLLASCQPAAIITGDEWLPLVNAATHDNPELHVLSHAWFKALPEADVALQRPVPNDIAYLQYTSGSTRFPRGVIITHREVMANLRAISHDGIKLRPGDRCVSWLPFYHDMGLVGFLLTPVATQLSVDYLRTQDFAMRPLQWLKLISKNRGTVSVAPPFGYELCQRRVNEKDLAELDLSCWRVAGIGAEPISAEQLHQFAECFRQVNFDNKTFMPCYGLAENALAVSFSDEASGVVVNEVDRDILEYQGKAVAPGAETRAVSTFVNCGKALPEHGIEIRNEAGMPVAERVVGHICISGPSLMSGYFGDQVSQDEIAATGWLDTGDLGYLLDGYLYVTGRIKDLIIIRGRNIWPQDIEYIAEQEPEIHSGDAIAFVTAQEKIILQIQCRISDEERRGQLIHALAARIQSEFGVTAAIDLLPPHSIPRTSSGKPARAEAKKRYQKAYAASLNVQESLAEGHHHHHH”, the protein production is reported as “not failed”. For “MSLSQDGLLGEVLSEGVLTLTLGRAPAHPLSRAMIAALHDALRRAMGDDHVHVLVIHGPGRIFCAGHDLKEIGRHRADPDEGRAFVTDLFEACSALMLDLAHCPKPTIALVEGIATAAGLQLMAACDLAYASPAARFCLPGVQNGGFCTTPAVAVSRVIGRRAVTEMALTGATYDADWALAAGLINRILPEAALATHVADLAGALAARNQAPLRRGLETLNRHLELPLEQAYALATPVMVEHFMDPGRRHLDWIDEGHHHHHH”, the protein production was “not failed”. In the case of “MSLSSGRTVPTRSHGLGKEGVSTTGASQVEFGDPELTARINDAMVQVEELLHTELSSGEDFLVDIVMHLTRAGGKRFRPMFALLASEFGEKPLSENVIKAAVVVEITHLATLYHDDVMDEASMRRGVPSANARWDNSVAILAGDILLAHASGLMSQLGTDTVAHFAETFGELVTGQMRETVGPRDTDPIEHYTNVIREKTGVLIASAGYLGAMHAGAAPEHIDALKNFGAAVGMIFQIVDDIIDIFSETHESGKTPGTDLREGVFTLPVLYALREDTPVGAELRDILTGPLEDDETVNHVLELLSQSGGRQAALDEVYRYMDIANAELDRLPDSTVKEALRNLATFTVKRVGEGHHHHHH”, the protein production is reported as “not failed”. With “MSLSSVKDFPKIKAIRSFIIGGVGSGGDYHNVKGGHWLIDSDISTPASKWEQYKKSRTSWGINVLGSFLVEIEATDGTVGFATGFGGPPACWLVHQHFERFLIGADPRNTNLLFEQMYRASMFYGRKGLPIAVISVIDLALWDLLGKVRNEPVYRLIGGATKERLDFYCTGPEPTAAKAMGFWGGKVPLPFCPDDGHEGLRKNVEFLRKHREAVGPDFPIMVDCYMSLNVSYTIELVKACLDLNINWWEECLSPDDTDGFALIKRAHPTVKFTTGEHEYSRYGFRKLVEGRNLDIIQPDVMWLGGLTELLKVAALAAAYDVPVVPHASGPYSYHFQISQPNTPFQEYLANSPDGKSVLPVFGDLFIDEPIPTKGYLTTADLDKPGFGLTINPAARAKLIPSDYLFKVPEIPQNLSTGKEIKSNEQPDKPNGTLDSLAAKVESLTTSTSSEGHHHHHH” the protein production was “not failed”. With “MSLSTFNRIHLVVLDSVGIGAAPDANNFSNAGVPDGASDTLGHISKTVGLNVPNMAKIGLGNIPRDTPLKTVPAENHPTGYVTKLEEVSLGKDTMTGHWEIMGLNITEPFDTFWNGFPEEIISKIEKFSGRKVIREANKPYSGTAVIDDFGPRQMETGELIIYTSADPVLQIAAHEDVIPLDELYRICEYARSITLERPALLGRIIARPYVGKPRNFTRTANRHDYALSPFAPTVLNKLADAGVSTYAVGKINDIFNGSGITNDMGHNKSNSHGVDTLIKTMGLSAFTKGFSFTNLVDFDALYGHRRNAHGYRDCLHEFDERLPEIIAAMKVDDLLLITADHGNDPTYAGTDHTREYVPLLAYSPSFTGNGVLPVGHYADISATIADNFGVDTAMIGESFLDKLIEGHHHHHH” the protein production was “not failed”. For “MSLSYVHTEIQNDALYITLDYPEKKNGLDAELGTSLLEAIRAGNNETSIHSIILQSKHRAYFSSGPRLEDLLICASDQSDVRLREVLHVLNHCVLEIFTSPKVTVALINGYAYGGGFNMMLACDRRIALRRAKFLENFHKMGISPDLGASYFLPRIIGYEQTMNLLLEGKLFTSEEALRLGLIQEICENKQELQERVKNYLKAVSEGYVPAIAATKKLLKGKAAEELKQQLEQETEELVALFKQTEIKKRLEALVEGHHHHHH”, the protein production was “not failed”. With “MSLTADPPACTVPAAGVSSTHKLVNGGAEKIVFKIKSSNNNEYRIAPVFGFVDPSGSKDVVITRTAGAPKEDKLVVHFASAPADATDAQAAFVAVAPAGTVTIPMSATA” the protein production was “not failed”. In the case of “MSLTARSVVLSVLLGAHPAWATASELIQLTADFGIKETTLRVALTRMVGAGDLVRSADGYRLSDRLLARQRRQDEAMRPRTRAWHGNWHMLIVTSIGTDARTRAALRTCMHHKRFGELREGVWMRPDNLDLDLESDVAARVRMLTARDEAPADLAGQLWDLSGWTEAGHRLLGDMAAATDMPGRFVVAAAMVRHLLTDPMLPAELLPADWPGAGLRAAYHDFATAMAKRRDATQLLEVTEGHHHHHH”, the protein production is reported as “not failed”. For “MSLTFPTLSPTQIIQYIHLGSFLNAHNVDYIHNNNISSILLVGIEVPSLFKDQCDILRLDIVSEEGHQLYDSIPNAIKFIIRSIQRKEGVLIISGTGVNKAPAIVIAFLMYYQRLSFINAFNKVQGLYPLIDIESGFILQLKLFEKKLEKMNSEGHHHHHH”, the protein production was “not failed”. In the case of “MSLTNDERILSWNETPSKPRYTPPPGAIDAHCHVFGPMAQFPFSPKAKYLPRDAGPDMLFALRDHLGFARNVIVQASCHGTDNAATLDAIARAQGKARGIAVVDPAIDEAELAALHEGGMRGIRFNFLKRLVDDAPKDKFLEVAGRLPAGWHVVIYFEADILEELRPFMDAIPVPIVIDHMGRPDVRQGPDGADMKAFRRLLDSREDIWFKATCPDRLDPAGPPWDDFARSVAPLVADYADRVIWGTDWPHPNMQDAIPDDGLVVDMIPRIAPTPELQHKMLVTNPMRLYWSEEMEGHHHHHH”, the protein production is reported as “not failed”. With “MSLTNGEENEEVLFCEKAKLLIFDSDTKGYTSRGVGELKLLRKKDDKGKVRVLCRSEGMGHVLLNTSVVKSFKYQPIDADNENLIKWPIITDGKLETFIIKVKQKADGRRLVGAVADAQQAMEGHHHHHH” the protein production was “not failed”. With “MSLTPRNATVAVIGAGDYIGAEIAKKFAAEGFTVFAGRRNGEKLAPLVAEIEAAGGRIVARSLDARNEDEVTAFLNAADAHAPLEVTIFNVGANVNFPILETTDRVFRKVWEMACWAGFVSGRESARLMLAHGQGKIFFTGATASLRGGSGFAAFASAKFGLRAVAQSMARELMPKNIHVAHLIIDSGVDTAWVRERREQMFGKDALANPDLLMPPAAVAGAYWQLYQQPKSAWTFEMEIRPYGEGHHHHHH” the protein production was “not failed”. For “MSLTSVVFLNPGNSTETFWVSYSQFMQAAARDLGLDLRILYAERDPQNTLQQARELFQGRDKPDYLMLVNEQYVAPQILRLSQGSGIKLFIVNSPLTLDQRELIGQSRQNYSDWIGSMVGDDEEAGYRMLKELLHKLGPVPAGHGIELLAFSGLKVTPAAQLRERGLRRALAEHPQVHLRQLVYGEWNRERAYRQAQQLLKRYPKTQLVWSANDEMALGAMQAARELGRKPGTDLLFSGVNSSPEALQALIDGKLSVLEAGHFTLGGWALVALHDDALGLDARRLGGPDWQLSLFQALTPAQARQLLRLGDQVGTRVDFRGLSAQGKPDSYRYPFGLQLLLREGHHHHHH”, the protein production was “not failed”. In the case of “MSLTTYDTQPSTLIRNAAAIMTGGRGTADDPSRVPGPDIRIVGDTIDAIGALAPRPGETIVDATDCVIYPAWVNTHHHLFQSLLKGEPAGLDATLTPWLAATPYRFRALFDERRFRLAARIGLIELARSGCATVADHNYVYYPGMPFDSSAILFEEAEKLGLRFVLLRGGATQTRQLEADLPTALRPETLDAYVADIERLAARYHDASPRAMRRVVMAPTTVLYSISPREMRETAAVARRLGLRMHSHLSETVGYQDSAYSMYGKSPVAFCGEHDWLGSDVWYAHLVKVDADEIALLAQTGTGVAHCPQSNGRLGSGICPVREMADAGVPVSIGVDGAASNEAADMISEVHMTWLAQRARLGMLAQPAYRGGSFEGGAGAASIAEVIHWGTAGGARVMGLDEVGKVAVGYAADIAVYRLDDPRYFGLHDPAIGPVASGGRPSVMALFSAGKRVVVDDLIEGVDIKELGGEARRVVRELLREVVVEGHHHHHH”, the protein production is reported as “not failed”. In the case of “MSLVLVDHPRPGVALITLNRPERMNSMAFDVMVPLKEALQKVTYDNAVRVVVLTGAGRGFSSGADHKSAGTVPHVEGLTRPTYALRSMEILDEVILALRRLHQPVIAAVNGPAIGGGLCLALAADIRVASTSAYFRAAGINNGLTASELGLSYLLPRAIGSSRAFEIMLTGRDVTAEEAERIGLVSCQVPEEQLLDTCYAIAARIAAFSRPGIELTKRTLWSGLDAGSLEGHMQAEGLGQLFVRLLTANFEEAVAARAERRPPVFTDDK”, the protein production is reported as “failed”. With “MSLVSLPGLPAMISEISKRNNLPTTAVEEALREALLKGYERFRRSQLMGHQFPEEYFNNFEVELDTEEEGFRVLSTKRIVEEVENSDQQISLKEVLEVAEEAQLGDEVVLDVTPEQKDFGRMAAIQTKQVLLQKLRDQQRKIIQEEFQDLEGTVLNARALRFERQSIIVAVQSSFGQPEVEAELPKREQLPNDNYRANSTFRVYLKRVREGSQRGPQLVVSRAAAGLVVDLFSVEVPEIEEEVVRIVAVAREAKPPSPSVGPRTKIAVDTLERDVDPVGACIGARGSRIHAVVNELRGEKIDVIRWSPDPATYIAQALSPARVDQVYLIHAEERHALVIVAEDQLSLAIGKEGQNVRLAARLTGWKIDIKDPETYARDKEAIEQSILERAAASAQARAEREAAEQEAQAKLEAEMAALEAEEAEELEETPEAIAEVEEEVEEWDQDQGPELGEEEELSLEHHHHHH” the protein production was “not failed”. For “MSLVTYQTIKVRFQASVCYITFHRPEANNTINDTLIEECLQVLNQCETSTVTVVVLEGLPEVFCFGADFQEIYQEMKRGRKQASSQEPLYDLWMKLQTGPYVTISHVRGKVNAGGLGFVSATDIAIADQTASFSLSELLFGLYPACVLPFLIRRIGRQKAHYMTLMTKPISVQEASEWGLIDAFDAESDVLLRKHLLRLRRLNKKGIAHYKQFMSSLDHQVSRAKATALTANQDMFSDPQNQMGIIRYVETGQFPWEDQEGHHHHHH”, the protein production was “not failed”.

From a protein production outcome set (Wang et al. 2014)
